Patent publication US20140242093, “METHODS AND COMPOSITIONS FOR MODULATING THE INNATE IMMUNE RESPONSE AND/OR MYOGENESIS IN A MAMMALIAN SUBJECT” (FRED HUTCHINSON CANCER RESEARCH CENTER, published 2014)

B1: THE1Dmut (dsDNA)
DNA 1: CCTGTGGGAGGTACTCCTATGATGGAGGCAG
DNA 2: CTGCCTCCATCATAGGAGTACCTCCCACAGG
B2: CSF1Rmut (dsDNA)
DNA 1: CCAGGTGGAGATACTTGTATGATGGGGGCAG
DNA 2: CTGCCCCCATCATACAAGTATCTCCACCTGG
B3: TRIM48mut (dsDNA)
DNA 1: AGGAGTGATGATACTTTTATGAGCCGTGCAA
DNA 2: TTGCACGGCTCATAAAAGTATCATCACTCCT

Molecular target: DUX4-fl (Homo sapiens, UniProt Q9UBX2 SEQ:1-424)
Test: EMSA; cold mutant does not compete
Details: tags: pCS2-DUX4-fl, TNT SP6 wheat germ
Protocol: EMSA was performed with ³²P-labeled 31-bp oligonucleotides from endogenous genomic sequences containing the putative DUX4 binding site as probes (sequences below; only forward shown). Radiolabeled probes were incubated with in vitro translated protein generated from pCS2-DUX4-fl or pCS2-DUX4-s² vectors using the TNT SP6 Coupled Wheat Germ Extract System (Promega) according to manufacturer's instructions. To obtain supershift of protein-DNA complexes, 0.1 μg of E14-3 anti-DUX4 rabbit monoclonal antibody was added to the mixtures. For competition experiments, excess unlabeled probes of either wild-type or mutant sequences were included in the binding reaction. The gels were prepared and run as previously described (Knoepfler et al., 1999).
Electrophoretic mobility shift assay (EMSA) confirmed that DUX4-fl binds the core motifs present in both MaLR-associated and non-repeat associated sites: TRIM48 oligos—the TAATTTAATCA (SEQ ID NO:169) core sequence found near the TRIM48 gene, CSF1R oligos—the TAATTGAATCA (SEQ ID NO:171) core sequence found within the LTR of a THE1B retroelement near the CSF1R gene, and THE1D oligos—the TAATCCAATCA (SEQ ID NO:172) core sequence found within the LTR of the THE1D retroelement. […] Because the DUX4-s alternative splice form retains the N-terminal DNA-binding homeodomains, the inventors hypothesized that it would bind to the same sites as DUX4-fl. EMSA confirmed that DUX4-s specifically binds the same core binding site as DUX4-fl in vitro.

DUX4-fl, sequence (Q9UBX2 whole entry): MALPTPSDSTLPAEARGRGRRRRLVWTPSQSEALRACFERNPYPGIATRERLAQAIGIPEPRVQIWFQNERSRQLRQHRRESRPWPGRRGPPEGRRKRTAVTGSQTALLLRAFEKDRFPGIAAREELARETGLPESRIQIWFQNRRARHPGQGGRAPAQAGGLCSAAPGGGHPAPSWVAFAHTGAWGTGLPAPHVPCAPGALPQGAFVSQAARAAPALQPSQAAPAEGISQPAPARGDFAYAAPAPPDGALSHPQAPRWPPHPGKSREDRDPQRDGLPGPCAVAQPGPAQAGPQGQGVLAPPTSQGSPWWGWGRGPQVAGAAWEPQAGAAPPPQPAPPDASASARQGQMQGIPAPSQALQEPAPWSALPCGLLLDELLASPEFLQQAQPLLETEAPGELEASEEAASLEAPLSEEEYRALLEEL

| Binder | binding result |
| --- | --- |
| B1 | no binding |
| B2 | no binding |
| B3 | no binding |
